These results are taken from the supplement of paper PMC10567573.

The chains are these.
B1: KRT18 (parent)
chain: RAQYDELARKNREELDKYWSQQIE
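Note: lentivirally expressed fusions sorted by FACS into six bins by GFP to DsRed ratio, PSI derived from sequencing read proportions per bin multiplied by bin number.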

In this series the parent is B1. Kind of series: protein stability index of a GFP-peptide fusion (GPS, HEK-293T) (PSI 1-6); higher = more stable. The settings on record: c terminus: a fixed tail appended.
As to RAQYDERARKNREELDKYWSQQIE, the protein stability index came out at 3.89.

On to RAQYDEPARKNREELDKYWSQQIE, for which the protein stability index stood at 4.08. To RAQYDELARKNREELDFYWSQQIE belongs 3.62. In the case of RAQYDELARKNREELDWYWSQQIE it was 3.65. As to RAQYDELARKNREELDHYWSQQIE, the protein stability index was 3.14. Take RAQYDELARKNREELDRYWSQQIE: the protein stability index worked out at 2.56. To RAQYDELARKNREELDYYWSQQIE belongs 3.42. As to RAQYDELARKNREELDLYWSQQIE, the protein stability index is 3.14. To RAQYDELARKNREELDCYWSQQIE belongs 3.28; to RAQYDELARKNREELDPYWSQQIE, 4.25.

On to RAQYDELARKNREELDIYWSQQIE, for which the protein stability index amounted to 3.16.

For the variant RAQYDELARKNREELDAYWSQQIE, the protein stability index came to 2.7. To RAQYDELARKNREELDVYWSQQIE belongs 3.64. For RAQYDELARKNREYLDKYWSQQIE, the protein stability index stood at 3.07. Turning to RAQYDELARKNREQLDKYWSQQIE, the protein stability index was 3.85. Consider RAQYDELARKNRETLDKYWSQQIE, for which the protein stability index was found to be 3.56. Take RAQYDELARKNREALDKYWSQQIE: the protein stability index was determined as 3.82. To RAQYDELARKNRESLDKYWSQQIE belongs 3.5. In the case of RAQYDELARKNREPLDKYWSQQIE, the protein stability index was 3.81. Consider RAQYDELARKNREILDKYWSQQIE, for which the protein stability index turned out to be 2.62. In the case of RAQYDELARKNRERLDKYWSQQIE it was 2.87; in that of RAQYDELARKMREELDKYWSQQIE, 2.81. To RAQYDELARKYREELDKYWSQQIE belongs 2.27. Consider RAQYDELARKKREELDKYWSQQIE, for which the protein stability index worked out at 3.96.

For RAQYDELARKLREELDKYWSQQIE, the protein stability index is 2.66. As for RAQYDELARKTREELDKYWSQQIE, the protein stability index stood at 2.8.

On to RAQYDELARKCREELDKYWSQQIE, for which the protein stability index was determined as 2.81.

Turning to RAQYDELALKNREELDKYWSQQIE, the protein stability index came out at 3.27. In the case of RAQYDELAAKNREELDKYWSQQIE it was 3.92; in that of RAQYDELAGKNREELDKYWSQQIE, 4.53.

Turning to RAQYDELADKNREELDKYWSQQIE, the protein stability index was determined as 4.4.

Turning to RAQYDELAIKNREELDKYWSQQIE, the protein stability index stood at 3.34. In the case of RAQYDELAEKNREELDKYWSQQIE, the protein stability index amounted to 3.69. On to RAQYDELACKNREELDKYWSQQIE, for which the protein stability index was found to be 3.6. To RAQYDELAYKNREELDKYWSQQIE belongs 3.64. RAQYDELAQKNREELDKYWSQQIE: the protein stability index amounted to 3.16.

Take RAQYDELAMKNREELDKYWSQQIE: the protein stability index is 3.17. On to RAQYDELAVKNREELDKYWSQQIE, for which the protein stability index stood at 2.86.

Consider RWQYDELARKNREELDKYWSQQIE, for which the protein stability index is 3.13.

RSQYDELARKNREELDKYWSQQIE: the protein stability index came out at 3.25. To RLQYDELARKNREELDKYWSQQIE belongs 2.51. Turning to RFQYDELARKNREELDKYWSQQIE, the protein stability index was 2.73. As to REQYDELARKNREELDKYWSQQIE, the protein stability index was determined as 3.34.

As for RNQYDELARKNREELDKYWSQQIE, the protein stability index is 2.52. RMQYDELARKNREELDKYWSQQIE: the protein stability index was 2.65. Take RQQYDELARKNREELDKYWSQQIE: the protein stability index was 3.07. Turning to RGQYDELARKNREELDKYWSQQIE, the protein stability index amounted to 2.33. Consider RAQYDELARKNREELDKYRSQQIE, for which the protein stability index was determined as 4.71. As to RAQYDELARKNREELDKYFSQQIE, the protein stability index was 4.19. In the case of RAQYDELARKNREELDKYSSQQIE, the protein stability index was 4.25. To RAQYDELARKNREELDKYISQQIE belongs 4.5; to RAQYDELARKNREELDKYTSQQIE, 4.97; to RAQYDELARKNREELDKYVSQQIE, 4.68.

For RAQYDELARKNREELDKYPSQQIE, the protein stability index worked out at 5.03. For RAQYDELARKNREELDKYLSQQIE, the protein stability index was determined as 4.42. Regarding RAQYDRLARKNREELDKYWSQQIE, the protein stability index stood at 3.17.

For the variant RAQYDQLARKNREELDKYWSQQIE, the protein stability index was 3.51. On to RAQYDCLARKNREELDKYWSQQIE, for which the protein stability index came to 2.3. On to RAQYDGLARKNREELDKYWSQQIE, for which the protein stability index is 3.02. On to RAQYDSLARKNREELDKYWSQQIE, for which the protein stability index was found to be 3.24.

For RAQYDKLARKNREELDKYWSQQIE, the protein stability index turned out to be 3.48. With RAQYDVLARKNREELDKYWSQQIE, the protein stability index came to 3.32. Consider RAQYDYLARKNREELDKYWSQQIE, for which the protein stability index worked out at 3.25. Regarding RAQYDELARKNCEELDKYWSQQIE, the protein stability index worked out at 3.98. As to RAQYDELARKNIEELDKYWSQQIE, the protein stability index came out at 4.34.

For RAQYDELARKNEEELDKYWSQQIE, the protein stability index was 4.27.

For RAQYDELARKNYEELDKYWSQQIE, the protein stability index was found to be 4.05. Regarding RAQYDELARKNWEELDKYWSQQIE, the protein stability index was determined as 4.56. In the case of RAQYDELARKNQEELDKYWSQQIE it was 4.12; in that of RAQYDELARKNGEELDKYWSQQIE, 3.32; in that of RAQYDELARKNLEELDKYWSQQIE, 4.56. RAQYDELARKNMEELDKYWSQQIE: the protein stability index worked out at 3.72. RAQYDELARKNAEELDKYWSQQIE: the protein stability index was 4.25.

Consider RAQKDELARKNREELDKYWSQQIE, for which the protein stability index was found to be 3.46. Turning to RAQPDELARKNREELDKYWSQQIE, the protein stability index turned out to be 3.67. In the case of RAQDDELARKNREELDKYWSQQIE it was 3.23. RAQMDELARKNREELDKYWSQQIE: the protein stability index came to 3.18.

For RAQCDELARKNREELDKYWSQQIE, the protein stability index was 3.44. To RAQHDELARKNREELDKYWSQQIE belongs 3.45; to RAQEDELARKNREELDKYWSQQIE, 3.57. Consider RAQGDELARKNREELDKYWSQQIE, for which the protein stability index was 3.04.

On to RAQQDELARKNREELDKYWSQQIE, for which the protein stability index worked out at 3.93. On to RAQYDELARKNREELLKYWSQQIE, for which the protein stability index worked out at 3.12. With RAQYDELARKNREELNKYWSQQIE, the protein stability index was found to be 1.42. To RAQYDELARKNREELCKYWSQQIE belongs 2.4.

Take RAQYDELARKNREELIKYWSQQIE: the protein stability index was 2.15. With RAQYDELARKNREELYKYWSQQIE, the protein stability index amounted to 2.72.

As for RAQYDELARKNREELSKYWSQQIE, the protein stability index is 2.36. As to RAQYDELARKNREELQKYWSQQIE, the protein stability index came to 2.69. For RAQYDELARKNREELTKYWSQQIE, the protein stability index came out at 2.92. To RAQYDELARKNREELFKYWSQQIE belongs 2.1; to RAQYDELARKNREELEKYWSQQIE, 3.39.

Consider RAQYDELARKNREELRKYWSQQIE, for which the protein stability index was 3.08.

Consider RAQYDELARKNREELGKYWSQQIE, for which the protein stability index was determined as 2.03.
